{"source": "the supplement of paper PMC12042874", "note": "± gives the uncertainty stated by the source."}
{"test": "amyloid nucleation score (Sup35N fusion, yeast selection) (log enrichment); library NNK2; higher = more nucleation; inactive = no reads after selection", "outline": "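Psi-negative yeast expressed Sup35N fused to peptides of 20 random codons. They were induced 24 hours with 100 μM copper sulfate, grown 7 days at 30°C without adenine and uracil, and their plasmid inserts from input and output were Illumina-sequenced. The nucleation score is the DiMSum log enrichment of output over input reads, centred on the mode score of non-aggregating sequences. Sequences with under 100 input reads were excluded.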"}
{"substance": "STWHLFWSP", "amyloid nucleation score": "0.654 ± 0.26"}
{"substance": "SLLIYQMYE", "amyloid nucleation score": "-0.263 ± 0.76"}
{"substance": "GAGLRCLFGNSGYGERCVTM", "amyloid nucleation score": "0.82 ± 0.44"}
{"substance": "LFDFGETVVIVLHVHSMLCL", "amyloid nucleation score": "4.41 ± 0.092"}
{"substance": "WCSVLRDNKLSR", "amyloid nucleation score": "-1.09 ± 0.45"}
{"substance": "GNIMSFSFMPDLGISFCPGC", "amyloid nucleation score": "6.515 ± 0.049"}
{"substance": "PHVFYCSILV", "amyloid nucleation score": "inactive"}
{"substance": "VCWYG", "amyloid nucleation score": "0.034 ± 0.3"}
{"substance": "ANYTCTLTSL", "amyloid nucleation score": "-0.056 ± 0.21"}
{"substance": "DIARDLVWGLRSNAGAQLGN", "amyloid nucleation score": "0.54 ± 0.44"}
{"substance": "ILNYSWALRVIDFTHRKVFS", "amyloid nucleation score": "-0.376 ± 0.2"}
{"substance": "MRSRNLLS", "amyloid nucleation score": "inactive"}
{"substance": "SVVLFEYGWICEIIEGSDII", "amyloid nucleation score": "inactive"}
{"substance": "FTYLIEARG", "amyloid nucleation score": "1.02 ± 0.41"}
{"substance": "FLMYK", "amyloid nucleation score": "-0.75 ± 0.76"}
{"substance": "CNVASFELVLRD", "amyloid nucleation score": "inactive"}
{"substance": "CHGRGISYQLLQNRNQQP", "amyloid nucleation score": "0.08 ± 0.79"}
{"substance": "SDYVYKFSVAWWVPVSSVVK", "amyloid nucleation score": "0.701 ± 0.38"}
{"substance": "IPALN", "amyloid nucleation score": "-0.963 ± 0.55"}
{"substance": "GNVGTRPQINTGSVCYMSCI", "amyloid nucleation score": "4.6 ± 0.057"}
{"substance": "SYWNLRQVVSIDDCMQSTFN", "amyloid nucleation score": "0.058 ± 1"}
{"substance": "FDWFNAYSF", "amyloid nucleation score": "0.092 ± 0.61"}
{"substance": "NKSSLRVCRPLSWNMSMVSN", "amyloid nucleation score": "0.593 ± 0.44"}
{"substance": "FSWDPGMIWGKI", "amyloid nucleation score": "7.203 ± 0.053"}
{"substance": "LRYNADMVGCKFWWIPVWSL", "amyloid nucleation score": "-0.843 ± 0.42"}
{"substance": "RLFDRSVLPLGLWVRCKIHW", "amyloid nucleation score": "0.28 ± 0.61"}
{"substance": "AFQITSERLGWKKVNHAVRW", "amyloid nucleation score": "0.432 ± 0.8"}
{"substance": "LTATFTNMGCTTGSKCLM", "amyloid nucleation score": "inactive"}
{"substance": "MHMYMRSGFLLLFVSWVREC", "amyloid nucleation score": "-0.958 ± 0.76"}
{"substance": "YYWGAGTQHGYLFTFVGGND", "amyloid nucleation score": "-0.326 ± 1"}
{"substance": "PSWSAKTCACWNKAYPIVEI", "amyloid nucleation score": "0.633 ± 0.47"}
{"substance": "TTICVFNVGESHMRLSGSVG", "amyloid nucleation score": "-0.053 ± 0.28"}
{"substance": "DSLINFRLKVPTMLCMFCWI", "amyloid nucleation score": "0.401 ± 0.62"}
{"substance": "FFWFQTSLDTPWKEVILVYI", "amyloid nucleation score": "-0.719 ± 0.79"}
{"substance": "FMMELCLALYLLSYQ", "amyloid nucleation score": "0.061 ± 0.8"}
{"substance": "AGASSRKWGLYDVYVERSEA", "amyloid nucleation score": "inactive"}
{"substance": "SRTDVPSTMLLSESRAVNYY", "amyloid nucleation score": "-0.569 ± 1.1"}
{"substance": "INGPCVYFNFL", "amyloid nucleation score": "6.425 ± 0.057"}
{"substance": "CNPIGIMHN", "amyloid nucleation score": "inactive"}
{"substance": "PATLAKIYSVGVGNYHRFVR", "amyloid nucleation score": "inactive"}
{"substance": "LLQKFVMGGEVRRESGGVRC", "amyloid nucleation score": "0.726 ± 0.25"}
{"substance": "VYCFSAFLGQ", "amyloid nucleation score": "3.63 ± 0.082"}
{"substance": "KMMLSTRSQYPS", "amyloid nucleation score": "0.489 ± 0.36"}
{"substance": "AYDFGVA", "amyloid nucleation score": "-0.263 ± 1.1"}
{"substance": "VKPVFWKLGWRDYLYSMRQF", "amyloid nucleation score": "-1.11 ± 0.3"}
{"substance": "ARIAETSRYKRSENSLSLV", "amyloid nucleation score": "-0.88 ± 0.76"}
{"substance": "LSSVILVLNNSVAFYILDAG", "amyloid nucleation score": "3.83 ± 0.09"}
{"substance": "SQTMVITFFSRCDVQIVKIN", "amyloid nucleation score": "5.583 ± 0.03"}
{"substance": "FGTKHFVICSL", "amyloid nucleation score": "-0.989 ± 0.76"}
{"substance": "YKHFSGFLDFQVPAFSGYVS", "amyloid nucleation score": "inactive"}
{"substance": "ASVIQGVRLLFFRNLARSTS", "amyloid nucleation score": "0.011 ± 0.79"}
{"substance": "YDPVAVF", "amyloid nucleation score": "-0.945 ± 0.43"}
{"substance": "SDEVVVFRRDMSGCHEFVLV", "amyloid nucleation score": "1.12 ± 0.27"}
{"substance": "FKYVFCSDEVGSMYVMCNCM", "amyloid nucleation score": "8.568 ± 0.034"}
{"substance": "LRNGVPDADASSRYFWAAEW", "amyloid nucleation score": "0.712 ± 0.24"}
{"substance": "MLSENADTRCLRMFVSDCQR", "amyloid nucleation score": "1.26 ± 0.16"}
{"substance": "SWVNMIMNMSLHTDIRYMLY", "amyloid nucleation score": "1.66 ± 0.25"}
{"substance": "RIEDFF", "amyloid nucleation score": "1.19 ± 0.68"}
{"substance": "WFMERVFYNSTNSTQLFEWV", "amyloid nucleation score": "inactive"}
{"substance": "DICNWHLYDNCLSICSGYR", "amyloid nucleation score": "0.951 ± 0.81"}
{"substance": "SFDVYVEARLMDSVTGLDRI", "amyloid nucleation score": "0.437 ± 0.32"}
{"substance": "VPDGHWSTHRRFSYMQVLNW", "amyloid nucleation score": "-0.441 ± 1.1"}
{"substance": "GCHSWSNLGEWCCYIYKMVI", "amyloid nucleation score": "-1.14 ± 0.78"}
{"substance": "FAAHCFDFMIHVPMGPAENK", "amyloid nucleation score": "3.69 ± 0.13"}
{"substance": "IANKCVS", "amyloid nucleation score": "-1.12 ± 0.55"}
{"substance": "RKQCNKFGVWDQI", "amyloid nucleation score": "0.214 ± 0.5"}
{"substance": "FAGWIYGCTDRMVCLCSGGF", "amyloid nucleation score": "inactive"}
{"substance": "FGKFFCCWSSLRNEKCYFAM", "amyloid nucleation score": "inactive"}
{"substance": "EDIGSGGKTRFLDRRWVFCN", "amyloid nucleation score": "inactive"}
{"substance": "LCSMEIWRMRRMMQS", "amyloid nucleation score": "0.154 ± 0.34"}
